Earlier results as cited in publication PMC5158201.

Target: decoy IL-1 receptor (IL-1RII) (Homo sapiens) (UniProt P27930)
UniProt P27930, sequence (P27930 14-398): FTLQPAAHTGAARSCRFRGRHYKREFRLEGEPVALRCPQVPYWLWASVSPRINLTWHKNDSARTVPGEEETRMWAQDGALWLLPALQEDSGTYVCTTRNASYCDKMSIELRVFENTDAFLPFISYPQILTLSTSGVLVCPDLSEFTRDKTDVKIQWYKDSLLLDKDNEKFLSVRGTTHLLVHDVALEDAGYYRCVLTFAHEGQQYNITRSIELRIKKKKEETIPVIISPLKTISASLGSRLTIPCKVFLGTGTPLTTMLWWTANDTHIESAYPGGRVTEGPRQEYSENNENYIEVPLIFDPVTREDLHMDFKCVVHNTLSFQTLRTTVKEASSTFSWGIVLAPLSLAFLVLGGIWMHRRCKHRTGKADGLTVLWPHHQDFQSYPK

Q: For IL-1α (from UniProt P01583), which Kd is on record?
A: 0.03 nM
